Source: patent publication US20230036655A1 (OTSUKA PHARMACEUTICAL, published 2023)
Substitutions are numbered along the chain they refer to.

T1: human GDF15 (hGDF15), mature, wild-type (human, UniProt Q99988 197-308)
T1 construct: Bought recombinant protein: R&D Systems 957-GD-025/CF in most assays, 9279-GD in the crystal and the GDF15/GFRAL/RET assay; It was biotinylated in the GFRAL assay; also called hGDF15 (WT); rhGDF15
T1 sequence: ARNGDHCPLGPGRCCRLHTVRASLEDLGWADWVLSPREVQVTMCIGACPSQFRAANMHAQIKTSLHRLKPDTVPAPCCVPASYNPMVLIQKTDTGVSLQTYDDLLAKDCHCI

T2: mutant hGDF15 H6A (human, UniProt Q99988 197-308)
T2 construct: Expressed in ExpiCHO-S cells and used as culture supernatant in the ELISA
T2 chain: T1 sequence with H6A

T3: mutant hGDF15 R13A (human, UniProt Q99988 197-308)
T3 construct: Expressed in ExpiCHO-S cells and used as culture supernatant in the ELISA
T3 chain: T1 sequence with R13A

T4: mutant hGDF15 R16A (human, UniProt Q99988 197-308)
T4 construct: Expressed in ExpiCHO-S cells and used as culture supernatant in the ELISA
T4 chain: T1 sequence with R16A

T5: mutant hGDF15 R13A, R16A (human, UniProt Q99988 197-308)
T5 construct: Expressed in ExpiCHO-S cells and used as culture supernatant in the ELISA
T5 chain: T1 sequence with R13A, R16A

T6: mutant hGDF15 3A (human, UniProt Q99988 197-308)
T6 construct: Expressed in ExpiCHO-S cells and used as culture supernatant
T6 chain: T1 sequence with G12A, R13A, R16A

T7: mutant hGDF15 4A (human, UniProt Q99988 197-308)
T7 construct: Expressed in ExpiCHO-S cells and used as culture supernatant
T7 chain: T1 sequence with G12A, R13A, R16A, L17A

T8: mutant hGDF15 6A (human, UniProt Q99988 197-308)
T8 construct: Expressed in ExpiCHO-S cells and used as culture supernatant
T8 chain: T1 sequence with G10A, P11A, G12A, R13A, R16A, L17A

T9: mutant hGDF15 8A (human, UniProt Q99988 197-308)
T9 construct: Expressed in ExpiCHO-S cells and used as culture supernatant
T9 chain: T1 sequence with P8A, L9A, G10A, P11A, G12A, R13A, R16A, L17A

T10: mutant hGDF15 T72A (human, UniProt Q99988 197-308)
T10 construct: Expressed in ExpiCHO-S cells and used as culture supernatant in the ELISA
T10 chain: T1 sequence with T72A

T11: Peptide 1 (human, cysteine pairing not given here)
T11 construct: Synthesized by GenScript
T11 peptide: H-DHCPLGPGRCCRLH-OH

T12: Peptide 2 (human, cysteine pairing not given here)
T12 construct: Synthesized by GenScript
T12 peptide: Ac-DHCPLGPGRCCRLH-NH2

B1: MAB17 (antibody, V domains shown)
VH: QVTLKESGPGILQPSQTLSLTCSFSGFSLNTHGMGVGWIRQPSGKGLEWLANIWWNDDKYYNSALKSRLTLSKDTSNNQVFLKISSVDTADTATYFCAQVAWDWFAYWGQGTLVTIS
VL: QIVLTQSPAIMSASLGEEITLTCSASSSVRYMHWYQQKSGTSPKVLIYSTSNLASGVPSRFSGSGSGTFYSLTISSVEAEDAADYYCHQWSSYPWTFGGGTKLEIKR
notes: Mouse monoclonal antibody from hybridoma; also called clone MAB17
B2: HuMAB2 (antibody, human IgG1, kappa, V domains shown)
VH: QVQLQESGPGLVKPSETLSLTCTVSGFSINSDCYWIWIRQPPGKGLEYIGYTFYSGITYYNPSLASRTTISRDTSKNQFSLKLSSVTAADTAVYYCARDCDYAMDYWGQGTLVTVSS
VL: DIQMTQSPSSLSASVGDRVTITCRASQDISNYLNWYQQKPGKAVKLLIHYTSTLHSGVPSRFSGSGSGTDYTLTISSLQPEDFATYFCQQGNTLPWTFGQGTKLEIKR
notes: Humanized MAB2 joined to the constant region of bevacizumab; The printed copies of the L chain differ from each other; also called HuMAB2 antibody; H3delK/L7

Assays:
[1] = target: T1, human GDF15 (hGDF15), mature, wild-type; test: competition ELISA: GFRAL immobilised, biotinylated GDF15 plus serially diluted antibody; inhibition of GDF15-GFRAL complex formation (negative control)
mutant hGDF15 H6A = target: T2, mutant hGDF15 H6A; test: sandwich ELISA: antibody immobilised, WT or mutant hGDF15, goat polyclonal detection; N=3, mean ± SD
mutant hGDF15 R13A = target: T3, mutant hGDF15 R13A; test: as above
mutant hGDF15 R16A = target: T4, mutant hGDF15 R16A; test: as above
mutant hGDF15 R13A, R16A = target: T5, mutant hGDF15 R13A, R16A; test: as above
mutant hGDF15 3A [2] = target: T6, mutant hGDF15 3A; test: as above
mutant hGDF15 4A [3] = target: T7, mutant hGDF15 4A; test: as above
mutant hGDF15 6A [4] = target: T8, mutant hGDF15 6A; test: as above
mutant hGDF15 8A [5] = target: T9, mutant hGDF15 8A; test: as above
mutant hGDF15 T72A = target: T10, mutant hGDF15 T72A; test: as above
[6] = target: T1, human GDF15 (hGDF15), mature, wild-type; test: sandwich ELISA: antibody immobilised, WT or mutant hGDF15, goat polyclonal detection; N=3, mean ± SD (reference)
[7] = target: T1, human GDF15 (hGDF15), mature, wild-type; test: competition ELISA: GFRAL immobilised, biotinylated GDF15 plus serially diluted antibody; inhibition of GDF15-GFRAL complex formation
Source text: First, the effect on GDF15 and GFRAL complex formation was examined (FIG. 12). GFRAL (R&D systems, 9697-GR) was immobilized on a plate, and GDF15 (R&D systems, 957-GD/CF) biotinylated with EZ-Link Micro NHS-PEG4-Bitinylation Kit (Thermo Fisher Scientific, 21955) and a serially diluted solution of an anti-GDF15 monoclonal antibody (Table 26) were reacted with the plate. Human IgG1, kappa-Isotype Control (Abcam) was used as a negative control antibody. GDF15 bound to GFRAL was detected using Pierce High Sensitivity Streptavidin-HRP (Thermo Fisher Scientific, 21130). TMB 1-Component Microwell Peroxidase Substrate, SureBlue (SeraCare Life Sciences) was used for color development, and the reaction was stopped by adding a stop solution (Wako). Absorbance was measured at 450 nm (OD450) using Emax (Molecular Devices). The % of control value was calculated according to Equation-1 from the OD450 value when each antibody was added, with the OD450 value when no antibody was added as a control. The IC50 value was obtained by calculating the inhibition rate from the % of control value thus obtained according to Equation-2 and using an Excel macro for IC50 calculation.

[8] = target: T1, human GDF15 (hGDF15), mature, wild-type; test: competition (sandwich) ELISA: clone immobilised, hGDF15 captured; competitor: biotinylated HuMAB2
Description: HuMAB2 and the anti-GDF15 monoclonal antibodies shown in Table 5 (2 μg/mL) were added to 96-well plates at 100 μL/well to be immobilized on the plates, and reacted with 100 μL/well of hGDF15 (R&D Systems, 957-GD-025/CF) serially diluted from a concentration of 1 ng/ml. HuMAB2 biotinylated using EZ-Link Micro NHS-PEG4-Bitinylation Kit (Thermo Fisher Scientific, 21955) was used as the detection antibody (1 μg/mL as 100 μL/well). Whether or not sandwich ELISA was established was determined using Streptavidin-HRP conjugate in Human GDF15 ELISA Kit (R&D Systems, DY957). The detection antibody in Human GDF15 ELISA Kit (R&D Systems, DY957) (Table 5), which can establish sandwich ELISA with any monoclonal antibody, was used as a positive control antibody (PC) for sandwich ELISA.
Then, other antibodies obtained this time were tested to see whether each of these antibodies competes with HuMAB2 by the same method as described above.

Peptide 1 = target: T11, Peptide 1; test: ELISA, peptide immobilised, anti-human IgG-HRP detection
Description: (§1) Peptide 1 was unmodified at both ends, and Peptide 2 was synthesized by acetylating the amino terminus and amidating the carboxyl terminus for the purpose of mimicking the natural state because this region is an internal region within hGDF15. HuMAB2 antibody (10 μg/mL) was added at 100 μL/well to a 96-well plate on which a 10 μg/mL peptide solution had been added at 100 μL/well and the peptide had been immobilized, and thereby reacted with the peptide (25° C. for 3 hours). The bound HuMAB2 antibody was detected by adding a 5000-fold diluted anti-human IgG-HRP (Jackson ImmunoResearch, 109-035-008) at 100 μL/well and reacted at 25° C. for 1 hour. A plate on which hGDF15 (R&D Systems, 957-GD-025/CF) was immobilized was used as a control plate. The detection antibody in Human GDF15 ELISA Kit (R&D Systems, DY957) (Table 9) was used as a positive control antibody that reacts with the peptide, and Human IgG1 Isotype control (Abcam, ab206198) was used as a negative control antibody.

Peptide 2 = target: T12, Peptide 2; test: as above
Description: as §1

mutant hGDF15 4A [9] = target: T7, mutant hGDF15 4A; test: sandwich ELISA, HuMAB2 immobilised, mutant hGDF15, goat polyclonal detection (relative value 0.0)
mutant hGDF15 6A [10] = target: T8, mutant hGDF15 6A; test: as above
mutant hGDF15 3A [11] = target: T6, mutant hGDF15 3A; test: sandwich ELISA, HuMAB2 immobilised, mutant hGDF15, goat polyclonal detection (relative value 0.4)
mutant hGDF15 8A [12] = target: T9, mutant hGDF15 8A; test: sandwich ELISA, HuMAB2 immobilised, mutant hGDF15, goat polyclonal detection (relative value -0.1)

Row | Molecule | relative binding (amount bound to 500 pg/mL hGDF15 = 100) (relative value (WT hGDF15 = 100)) (mutant hGDF15 R13A, R16A) | IC50 [7] | relative binding (amount bound to 500 pg/mL hGDF15 = 100) (mutant hGDF15 H6A) | relative binding (amount bound to 500 pg/mL hGDF15 = 100) (mutant hGDF15 R13A) | relative binding (amount bound to 500 pg/mL hGDF15 = 100) (mutant hGDF15 R16A) | relative binding (amount bound to 500 pg/mL hGDF15 = 100) (mutant hGDF15 3A [2]) | relative binding (amount bound to 500 pg/mL hGDF15 = 100) (mutant hGDF15 4A [3]) | relative binding (amount bound to 500 pg/mL hGDF15 = 100) (mutant hGDF15 6A [4]) | relative binding (amount bound to 500 pg/mL hGDF15 = 100) (mutant hGDF15 8A [5]) | relative binding (amount bound to 500 pg/mL hGDF15 = 100) (mutant hGDF15 T72A) | other results
1 | Human IgG1 Isotype control (antibody) | – | – | – | – | – | – | – | – | – | – | IC50 [1]: > 0.5 µM
2 | MAB957 (antibody) | 80.6 | 0.0111 µM | – | – | – | – | – | – | – | – | relative binding (amount bound to 500 pg/mL hGDF15 = 100) (relative value (WT hGDF15 = 100)) (mutant hGDF15 H6A): 88.3; relative binding (amount bound to 500 pg/mL hGDF15 = 100) (relative value (WT hGDF15 = 100)) (mutant hGDF15 R13A): 89.9; relative binding (amount bound to 500 pg/mL hGDF15 = 100) (relative value (WT hGDF15 = 100)) (mutant hGDF15 R16A): 93.9; relative binding (amount bound to 500 pg/mL hGDF15 = 100) (relative value (WT hGDF15 = 100)) (mutant hGDF15 3A [2]): 99; relative binding (amount bound to 500 pg/mL hGDF15 = 100) (relative value (WT hGDF15 = 100)) (mutant hGDF15 4A [3]): 84.1; relative binding (amount bound to 500 pg/mL hGDF15 = 100) (relative value (WT hGDF15 = 100)) (mutant hGDF15 6A [4]): 74.3; relative binding (amount bound to 500 pg/mL hGDF15 = 100) (relative value (WT hGDF15 = 100)) (mutant hGDF15 8A [5]): 69.2; relative binding (amount bound to 500 pg/mL hGDF15 = 100) (relative value (WT hGDF15 = 100)) (mutant hGDF15 T72A): 101; relative binding (amount bound to 500 pg/mL hGDF15 = 100) (relative value (WT hGDF15 = 100)) [6]: 100
3 | B1 | – | 0.012 µM | 87.7 relative value (WT hGDF15 = 100) | 97.2 relative value (WT hGDF15 = 100) | 101 relative value (WT hGDF15 = 100) | 110 relative value (WT hGDF15 = 100) | 95 relative value (WT hGDF15 = 100) | 83.9 relative value (WT hGDF15 = 100) | 78.8 relative value (WT hGDF15 = 100) | 104 relative value (WT hGDF15 = 100) | Inhibition % [8]: 0%; relative binding (amount bound to 500 pg/mL hGDF15 = 100) (mutant hGDF15 R13A, R16A): 83 relative value (WT hGDF15 = 100)
4 | B2 | 4.9 | > 0.5 µM | 136 relative value (WT hGDF15 = 100) | 17.8 relative value (WT hGDF15 = 100) | 24 relative value (WT hGDF15 = 100) | 0.4 relative value (WT hGDF15 = 100) | 0 relative value (WT hGDF15 = 100) | 0 relative value (WT hGDF15 = 100) | -0.1 relative value (WT hGDF15 = 100) | 101 relative value (WT hGDF15 = 100) | binding result (Peptide 1): no binding (tested: 10 µg/mL); binding result (Peptide 2): no binding (tested: 10 µg/mL); binding result (mutant hGDF15 4A [9]): no binding; binding result (mutant hGDF15 6A [10]): no binding; binding result (mutant hGDF15 3A [11]): no binding; binding result (mutant hGDF15 8A [12]): no binding
